In patent publication US6511832:

Experiments:
[1] = system: LEF-4 R51A R51A (Autographa californica nuclear polyhedrosis virus); conditions: 5'-triphosphate; RNA triphosphatase
[2] = system: LEF-4 wild type (E. coli) (Autographa californica nuclear polyhedrosis virus); conditions: 5'-triphosphate; RNA triphosphatase, 1 uM RNA
[3] = system: LEF-4 E9/11A E9A,E11A (Autographa californica nuclear polyhedrosis virus); conditions: 5'-triphosphate; RNA triphosphatase reduced 100-fold
[4] = system: LEF-4 (Autographa californica nuclear polyhedrosis virus); conditions: 5'-triphosphate; RNA 5'-triphosphatase turnover, 0.3 mM MnCl2, 30 C
[5] = target: baculovirus RNA polymerase complex (LEF-8/LEF-9/LEF-4/p47) (Autographa californica nuclear polyhedrosis virus) (UniProt P41452+P41465+P41477+P34051); conditions: 5'-triphosphate; RNA 5'-triphosphatase turnover, 0.3 mM MnCl2, 30 C
Chain of UniProt P41452 (P41452 whole entry, chain 1 of 4): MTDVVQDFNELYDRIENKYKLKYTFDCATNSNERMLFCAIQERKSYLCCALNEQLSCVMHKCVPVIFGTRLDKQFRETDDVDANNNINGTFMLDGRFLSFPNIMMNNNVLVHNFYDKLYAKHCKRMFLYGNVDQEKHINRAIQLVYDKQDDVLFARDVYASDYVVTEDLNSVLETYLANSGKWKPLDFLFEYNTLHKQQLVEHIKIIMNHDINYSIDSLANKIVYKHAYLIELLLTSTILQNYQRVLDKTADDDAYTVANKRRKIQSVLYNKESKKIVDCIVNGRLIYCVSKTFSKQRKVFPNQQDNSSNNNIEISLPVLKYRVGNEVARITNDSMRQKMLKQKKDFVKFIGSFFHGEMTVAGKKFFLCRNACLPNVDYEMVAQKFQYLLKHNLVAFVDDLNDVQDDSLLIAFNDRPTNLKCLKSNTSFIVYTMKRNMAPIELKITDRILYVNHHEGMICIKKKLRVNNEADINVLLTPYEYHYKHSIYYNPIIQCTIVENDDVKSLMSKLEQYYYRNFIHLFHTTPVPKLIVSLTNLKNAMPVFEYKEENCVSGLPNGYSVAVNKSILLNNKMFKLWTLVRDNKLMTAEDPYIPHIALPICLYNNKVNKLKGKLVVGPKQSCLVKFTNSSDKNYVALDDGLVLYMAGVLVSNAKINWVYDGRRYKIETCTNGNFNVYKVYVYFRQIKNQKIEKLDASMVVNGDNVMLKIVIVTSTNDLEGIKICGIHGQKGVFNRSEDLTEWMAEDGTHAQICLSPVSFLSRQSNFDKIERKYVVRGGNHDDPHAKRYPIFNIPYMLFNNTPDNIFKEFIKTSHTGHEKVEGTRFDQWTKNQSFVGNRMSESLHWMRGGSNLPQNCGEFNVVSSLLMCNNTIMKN
Chain of UniProt P41452 (P41465 whole entry, chain 2 of 4): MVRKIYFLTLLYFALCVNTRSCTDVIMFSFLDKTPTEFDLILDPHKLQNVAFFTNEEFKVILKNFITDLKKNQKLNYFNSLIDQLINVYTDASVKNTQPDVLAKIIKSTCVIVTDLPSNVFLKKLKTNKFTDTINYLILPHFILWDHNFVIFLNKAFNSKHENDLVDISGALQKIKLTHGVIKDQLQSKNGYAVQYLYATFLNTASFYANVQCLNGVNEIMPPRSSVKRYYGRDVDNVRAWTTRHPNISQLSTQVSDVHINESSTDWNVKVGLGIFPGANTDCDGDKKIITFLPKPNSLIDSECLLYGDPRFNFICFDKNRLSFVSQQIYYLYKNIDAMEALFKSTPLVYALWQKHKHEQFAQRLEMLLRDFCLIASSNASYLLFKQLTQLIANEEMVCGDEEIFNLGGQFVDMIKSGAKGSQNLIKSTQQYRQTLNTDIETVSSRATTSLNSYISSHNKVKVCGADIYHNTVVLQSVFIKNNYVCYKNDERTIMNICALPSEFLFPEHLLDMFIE
Chain of UniProt P41452 (P41477 whole entry, chain 3 of 4): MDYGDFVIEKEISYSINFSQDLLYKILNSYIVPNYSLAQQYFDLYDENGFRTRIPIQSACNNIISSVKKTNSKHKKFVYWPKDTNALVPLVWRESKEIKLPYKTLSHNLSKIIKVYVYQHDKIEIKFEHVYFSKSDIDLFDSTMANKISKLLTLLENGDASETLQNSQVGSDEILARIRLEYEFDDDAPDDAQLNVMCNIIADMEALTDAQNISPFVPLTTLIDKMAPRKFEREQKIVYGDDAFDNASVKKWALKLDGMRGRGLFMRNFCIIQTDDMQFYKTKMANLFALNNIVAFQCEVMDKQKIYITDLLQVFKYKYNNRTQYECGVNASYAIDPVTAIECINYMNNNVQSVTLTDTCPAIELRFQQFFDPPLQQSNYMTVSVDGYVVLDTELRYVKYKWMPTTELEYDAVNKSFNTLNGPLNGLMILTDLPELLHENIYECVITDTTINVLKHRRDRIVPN
Chain of UniProt P41452 (P34051 whole entry, chain 4 of 4): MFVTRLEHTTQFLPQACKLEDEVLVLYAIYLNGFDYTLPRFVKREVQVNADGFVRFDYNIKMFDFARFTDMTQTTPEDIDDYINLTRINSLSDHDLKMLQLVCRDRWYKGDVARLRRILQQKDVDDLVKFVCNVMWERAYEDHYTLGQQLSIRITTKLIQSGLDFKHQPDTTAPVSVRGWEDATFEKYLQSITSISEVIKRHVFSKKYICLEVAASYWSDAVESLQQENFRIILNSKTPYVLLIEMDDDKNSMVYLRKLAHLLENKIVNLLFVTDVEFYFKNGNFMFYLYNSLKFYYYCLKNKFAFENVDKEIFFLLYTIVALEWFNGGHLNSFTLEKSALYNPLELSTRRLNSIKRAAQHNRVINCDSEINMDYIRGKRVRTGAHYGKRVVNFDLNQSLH

[6] = system: LEF-4 L105F L105F (Autographa californica nuclear polyhedrosis virus); conditions: 5'-triphosphate; RNA triphosphatase at nonpermissive temperature (33 C); equal to wild type at 25 C

gamma-32P 5'-triphosphate 150-nt T3 transcript of pBluescript KS
RNA triphosphatase activity (% of wild type) [1]: 2.5
activity (pmol Pi/pmol per 15 min) [2]: 210
binding signal (fraction of wild type) [3]: 0.01
activity [4]: 0.31 fmol/s/fmol
activity [5]: 0.16 fmol/s/fmol
binding signal (% of wild type) [6]: 74
